Some results are limits rather than exact numbers.

The source of these data is US20240024505A1.

The test addresses mRXFP1 (UniProt Q9HBX9). Briefly: cell-based or functional assay.

mRXFP1, sequence (Q9HBX9 whole entry): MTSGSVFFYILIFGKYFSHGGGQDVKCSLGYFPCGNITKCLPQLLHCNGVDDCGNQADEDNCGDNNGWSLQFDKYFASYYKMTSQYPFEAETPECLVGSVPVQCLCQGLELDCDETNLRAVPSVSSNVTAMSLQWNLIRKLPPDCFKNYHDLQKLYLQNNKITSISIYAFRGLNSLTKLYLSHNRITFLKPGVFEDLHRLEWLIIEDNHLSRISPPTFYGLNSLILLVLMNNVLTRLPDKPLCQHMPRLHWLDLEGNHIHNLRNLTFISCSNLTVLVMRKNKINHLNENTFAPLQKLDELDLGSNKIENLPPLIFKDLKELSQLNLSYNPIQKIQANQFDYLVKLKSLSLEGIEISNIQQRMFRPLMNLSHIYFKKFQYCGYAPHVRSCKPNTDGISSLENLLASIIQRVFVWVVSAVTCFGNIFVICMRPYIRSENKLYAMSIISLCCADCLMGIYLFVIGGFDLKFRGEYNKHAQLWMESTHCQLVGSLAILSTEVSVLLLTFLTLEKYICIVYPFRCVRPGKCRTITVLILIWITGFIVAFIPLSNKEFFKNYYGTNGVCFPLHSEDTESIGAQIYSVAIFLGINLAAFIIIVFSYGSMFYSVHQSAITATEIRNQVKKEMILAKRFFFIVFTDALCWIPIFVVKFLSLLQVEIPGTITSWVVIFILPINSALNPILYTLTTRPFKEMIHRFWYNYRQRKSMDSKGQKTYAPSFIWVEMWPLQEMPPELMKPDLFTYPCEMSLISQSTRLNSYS

In turn, “recombinant RLX (serelaxin) (from UniProt P04090 25-53; P04090 162-185) (ligand)” gave an intracellular cAMP in human fibroblast-like synoviocytes above 15 fold.
